These results are taken from US20220125837A1, “METHODS FOR CONTROLLED ELIMINATION OF THERAPEUTIC CELLS” (Bellicum Pharmaceuticals, Inc., priority 2014, published 2022).

The assay deals with HEK293T/16 cells. Put plainly: Secreted alkaline phosphatase (SEAP) surrogate killing assay of iCasp9 mutants. To be noted: for relative SEAP activity Units (basal activity): no AP1903; for basal activity, in words: SEAP assay without AP1903, relative to wild type Caspase-9. Format: cell-based, human.

Protocol: Early passage HEK293T/16 cells (ATCC, Manassas, Va.) were maintained in IMDM, GlutaMAX™ (Life Technologies, Carlsbad, Calif.) supplemented with 10% FBS, 100 U/mL penicillin, and 100 U/mL streptomycin until transfection in a humidified, 37° C., 5% CO2/95% air atmosphere. Cells in logarithmic-phase growth were transiently transfected with 800 ng to 2 μg of expression plasmid encoding iCasp9 mutants and 500 ng of an expression plasmid encoding SRα promoter driven SEAP per million cells in 15-mL conical tubes. […] GeneJammer® Transfection Reagent at a ratio of 3 μl per ug of plasmid DNA was used to transiently transfect HEK293T/16 cells in the absence of antibiotics. 100 μl or 2 mL of the transfection mixture was added to each well in 96-well or 6-well plate, respectively.
Briefly, after 65° C. heat denaturation for 45 minutes to reduce background caused by endogenous (and serum-derived) alkaline phosphatases that are sensitive to heat, 5 μl of supernatants was added to 95 μl of PBS and added to 100 μl of substrate buffer, containing 1 μl of 100 mM 4-methylumbelliferyl phosphate (4-MUP; Sigma, St. Louis, Mo.) re-suspended in 2 M diethanolamine. Hydrolysis of 4-MUP by SEAP produces a fluorescent substrate with excitation/emission (355/460 nm), which can be easily measured. […] 1000-ul of the mixture was seeded onto each well of a 96-well plate. […] For the assay, 4-methylumbelliferyl phosphate substrate was hydrolyzed by SEAP to 4-methylumbelliferon, a metabolite that can be excited with 364 nm and detected with an emission filter of 448 nm. Since SEAP is used as a marker for cell viability, reduced SEAP reading corresponds with increased iCaspase-9 activities.

B1: D330A-N405Q: modified Caspase-9 polypeptide having a substitution at position 330 and a substitution at position 405 (protein, UniProt P55211 1-416, looked up, variant D330A N405Q)
chain: MDEADRRLLRRCRLRLVEELQVDQLWDALLSRELFRPHMIEDIQRAGSGSRRDQARQLIIDLETRGSQALPLFISCLEDTGQDMLASFLRTNRQAAKLSKPTLENLTPVVLRPEIRKPEVLRPETPRPVDIGSGGFGDVGALESLRGNADLAYILSMEPCGHCLIINNVNFCRESGLRTRTGSNIDCEKLRRRFSSLHFMVEVKGDLTAKKMVLALLELAQQDHGALDCCVVVILSHGCQASHLQFPGAVYGTDGCPVSVEKIVNIFNGTSCPSLGGKPKLFFIQACGGEQKDHGFEVASTSPEDESPGSNPEPDATPFQEGLRTFDQLAAISSLPTPSDIFVSYSTFPGFVSWRDPKSGSWYVETLDDIFEQWAHSEDLQSLLLRVANAVSVKGIYKQMPGCFQFLRKKLFFKTS
modifications: iCasp9, fused to FKBP12 F36V domain
On to B1, for which the “basal activity, in words” value was “intermediate”. Moreover, the “relative SEAP activity Units (basal activity)” value (1 μg iCasp9 per million cells, higher SEAP = lower basal activity) was 205772. The “relative SEAP activity Units (basal activity)” value (2 μg iCasp9 per million cells) was determined as 174366. For the same molecule, the “basal activity, in words” value (listed as iCasp9 D330A N405Q) is reported as “low to undetectable basal activity”.

B2: N405F: chimeric modified Caspase-9 polypeptide (protein, UniProt P55211 1-416, looked up, variant N405F)
chain: MDEADRRLLRRCRLRLVEELQVDQLWDALLSRELFRPHMIEDIQRAGSGSRRDQARQLIIDLETRGSQALPLFISCLEDTGQDMLASFLRTNRQAAKLSKPTLENLTPVVLRPEIRKPEVLRPETPRPVDIGSGGFGDVGALESLRGNADLAYILSMEPCGHCLIINNVNFCRESGLRTRTGSNIDCEKLRRRFSSLHFMVEVKGDLTAKKMVLALLELAQQDHGALDCCVVVILSHGCQASHLQFPGAVYGTDGCPVSVEKIVNIFNGTSCPSLGGKPKLFFIQACGGEQKDHGFEVASTSPEDESPGSNPEPDATPFQEGLRTFDQLDAISSLPTPSDIFVSYSTFPGFVSWRDPKSGSWYVETLDDIFEQWAHSEDLQSLLLRVANAVSVKGIYKQMPGCFFFLRKKLFFKTS
modifications: fused to FKBP12 F36V dimerization domain
notes: chimeric modified Caspase-9 polypeptide
On to B2, for which the “basal activity, in words” value was “lowered basal activity”.

B3: ^402GCFNF^406ISAQT: Caspase-9 polypeptide with the equivalent 5 residues from Caspase-10 (protein, UniProt P55211 1-416, looked up, variant G402I C403S F404A N405Q F406T)
chain: MDEADRRLLRRCRLRLVEELQVDQLWDALLSRELFRPHMIEDIQRAGSGSRRDQARQLIIDLETRGSQALPLFISCLEDTGQDMLASFLRTNRQAAKLSKPTLENLTPVVLRPEIRKPEVLRPETPRPVDIGSGGFGDVGALESLRGNADLAYILSMEPCGHCLIINNVNFCRESGLRTRTGSNIDCEKLRRRFSSLHFMVEVKGDLTAKKMVLALLELAQQDHGALDCCVVVILSHGCQASHLQFPGAVYGTDGCPVSVEKIVNIFNGTSCPSLGGKPKLFFIQACGGEQKDHGFEVASTSPEDESPGSNPEPDATPFQEGLRTFDQLDAISSLPTPSDIFVSYSTFPGFVSWRDPKSGSWYVETLDDIFEQWAHSEDLQSLLLRVANAVSVKGIYKQMPISAQTLRKKLFFKTS
For B3, the “basal activity, in words” value is “reduced basal activity”.

B4: D327G: chimeric modified Caspase-9 polypeptide (protein)
chain: VDGFGDVGALESLRGNADLAYILSMEPCGHCLIINNVNFCRESGLRTRTGSNIDCEKLRRRFSSLHFMVEVKGDLTAKKMVLALLELARQDHGALDCCVVVILSHGCQASHLQFPGAVYGTDGCPVSVEKIVNIFNGTSCPSLGGKPKLFFIQACGGEQKDHGFEVASTSPEDESPGSNPEPDATPFQEGLRTFGQLDAISSLPTPSDIFVSYSTFPGFVSWRDPKSGSWYVETLDDIFEQWAHSEDLQSLLLRVANAVSVKGIYKQMPGCFNFLRKKLFFKTSASRA
B4: the “basal activity, in words” value is reported as “did not lower basal activity”.

B5: D327K: chimeric modified Caspase-9 polypeptide (protein)
chain: VDGFGDVGALESLRGNADLAYILSMEPCGHCLIINNVNFCRESGLRTRTGSNIDCEKLRRRFSSLHFMVEVKGDLTAKKMVLALLELARQDHGALDCCVVVILSHGCQASHLQFPGAVYGTDGCPVSVEKIVNIFNGTSCPSLGGKPKLFFIQACGGEQKDHGFEVASTSPEDESPGSNPEPDATPFQEGLRTFKQLDAISSLPTPSDIFVSYSTFPGFVSWRDPKSGSWYVETLDDIFEQWAHSEDLQSLLLRVANAVSVKGIYKQMPGCFNFLRKKLFFKTSASRA
With B5, the “basal activity, in words” value is given as “did not lower basal activity”.

B6: F326K: chimeric modified Caspase-9 polypeptide (protein)
chain: VDGFGDVGALESLRGNADLAYILSMEPCGHCLIINNVNFCRESGLRTRTGSNIDCEKLRRRFSSLHFMVEVKGDLTAKKMVLALLELARQDHGALDCCVVVILSHGCQASHLQFPGAVYGTDGCPVSVEKIVNIFNGTSCPSLGGKPKLFFIQACGGEQKDHGFEVASTSPEDESPGSNPEPDATPFQEGLRTKDQLDAISSLPTPSDIFVSYSTFPGFVSWRDPKSGSWYVETLDDIFEQWAHSEDLQSLLLRVANAVSVKGIYKQMPGCFNFLRKKLFFKTSASRA
On to B6, for which the “basal activity, in words” value is reported as “did not lower basal activity”.

B7: L329K: chimeric modified Caspase-9 polypeptide (protein)
chain: VDGFGDVGALESLRGNADLAYILSMEPCGHCLIINNVNFCRESGLRTRTGSNIDCEKLRRRFSSLHFMVEVKGDLTAKKMVLALLELARQDHGALDCCVVVILSHGCQASHLQFPGAVYGTDGCPVSVEKIVNIFNGTSCPSLGGKPKLFFIQACGGEQKDHGFEVASTSPEDESPGSNPEPDATPFQEGLRTFDQKDAISSLPTPSDIFVSYSTFPGFVSWRDPKSGSWYVETLDDIFEQWAHSEDLQSLLLRVANAVSVKGIYKQMPGCFNFLRKKLFFKTSASRA
With B7, the “basal activity, in words” value is recorded as “did not lower basal activity”.

B8: A331K: chimeric modified Caspase-9 polypeptide (protein)
chain: VDGFGDVGALESLRGNADLAYILSMEPCGHCLIINNVNFCRESGLRTRTGSNIDCEKLRRRFSSLHFMVEVKGDLTAKKMVLALLELARQDHGALDCCVVVILSHGCQASHLQFPGAVYGTDGCPVSVEKIVNIFNGTSCPSLGGKPKLFFIQACGGEQKDHGFEVASTSPEDESPGSNPEPDATPFQEGLRTFDQLDKISSLPTPSDIFVSYSTFPGFVSWRDPKSGSWYVETLDDIFEQWAHSEDLQSLLLRVANAVSVKGIYKQMPGCFNFLRKKLFFKTSASRA
For the molecule B8, the “basal activity, in words” value is “did not lower basal activity”.

B9: Q328K: chimeric modified Caspase-9 polypeptide (protein)
chain: VDGFGDVGALESLRGNADLAYILSMEPCGHCLIINNVNFCRESGLRTRTGSNIDCEKLRRRFSSLHFMVEVKGDLTAKKMVLALLELARQDHGALDCCVVVILSHGCQASHLQFPGAVYGTDGCPVSVEKIVNIFNGTSCPSLGGKPKLFFIQACGGEQKDHGFEVASTSPEDESPGSNPEPDATPFQEGLRTFDKLDAISSLPTPSDIFVSYSTFPGFVSWRDPKSGSWYVETLDDIFEQWAHSEDLQSLLLRVANAVSVKGIYKQMPGCFNFLRKKLFFKTSASRA
B9: the “basal activity, in words” value is recorded as “did not lower basal activity”.

B10: T317C: chimeric modified Caspase-9 polypeptide (protein)
chain: VDGFGDVGALESLRGNADLAYILSMEPCGHCLIINNVNFCRESGLRTRTGSNIDCEKLRRRFSSLHFMVEVKGDLTAKKMVLALLELARQDHGALDCCVVVILSHGCQASHLQFPGAVYGTDGCPVSVEKIVNIFNGTSCPSLGGKPKLFFIQACGGEQKDHGFEVASTSPEDESPGSNPEPDACPFQEGLRTFDQLDAISSLPTPSDIFVSYSTFPGFVSWRDPKSGSWYVETLDDIFEQWAHSEDLQSLLLRVANAVSVKGIYKQMPGCFNFLRKKLFFKTSASRA
Regarding B10, the “basal activity, in words” value was “no effect”.

B11: D327R: chimeric modified Caspase-9 polypeptide (protein)
chain: VDGFGDVGALESLRGNADLAYILSMEPCGHCLIINNVNFCRESGLRTRTGSNIDCEKLRRRFSSLHFMVEVKGDLTAKKMVLALLELARQDHGALDCCVVVILSHGCQASHLQFPGAVYGTDGCPVSVEKIVNIFNGTSCPSLGGKPKLFFIQACGGEQKDHGFEVASTSPEDESPGSNPEPDATPFQEGLRTFRQLDAISSLPTPSDIFVSYSTFPGFVSWRDPKSGSWYVETLDDIFEQWAHSEDLQSLLLRVANAVSVKGIYKQMPGCFNFLRKKLFFKTSASRA
As to B11, the “basal activity, in words” value was “did not lower basal activity”.

B12: Q328R: chimeric modified Caspase-9 polypeptide (protein)
chain: VDGFGDVGALESLRGNADLAYILSMEPCGHCLIINNVNFCRESGLRTRTGSNIDCEKLRRRFSSLHFMVEVKGDLTAKKMVLALLELARQDHGALDCCVVVILSHGCQASHLQFPGAVYGTDGCPVSVEKIVNIFNGTSCPSLGGKPKLFFIQACGGEQKDHGFEVASTSPEDESPGSNPEPDATPFQEGLRTFDRLDAISSLPTPSDIFVSYSTFPGFVSWRDPKSGSWYVETLDDIFEQWAHSEDLQSLLLRVANAVSVKGIYKQMPGCFNFLRKKLFFKTSASRA
B12: the “basal activity, in words” value is “did not lower basal activity”.

B13: L329G: chimeric modified Caspase-9 polypeptide (protein)
chain: VDGFGDVGALESLRGNADLAYILSMEPCGHCLIINNVNFCRESGLRTRTGSNIDCEKLRRRFSSLHFMVEVKGDLTAKKMVLALLELARQDHGALDCCVVVILSHGCQASHLQFPGAVYGTDGCPVSVEKIVNIFNGTSCPSLGGKPKLFFIQACGGEQKDHGFEVASTSPEDESPGSNPEPDATPFQEGLRTFDQGDAISSLPTPSDIFVSYSTFPGFVSWRDPKSGSWYVETLDDIFEQWAHSEDLQSLLLRVANAVSVKGIYKQMPGCFNFLRKKLFFKTSASRA
As to B13, the “basal activity, in words” value is “did not lower basal activity”.
